Measurements published in paper PMC5068848.

B1: z1A P box (dsDNA)
DNA 1: GGCTATCGTTACACATGTGTAAAGGTATTGCATCACACCATT
DNA 2: AATGGTGTGATGCAATACCTTTACACATGTGTAACGATAGCC
B2: z1C P-box (dsDNA)
DNA 1: TCATGTTAATGTTGTCACATGTGTAAAGGTGAAGAGATCTTGCATGT
DNA 2: ACATGCAAGATCTCTTCACCTTTACACATGTGACAACATTAACATGA
B3: z1D-P1 (dsDNA)
DNA 1: TTTTGTGCAAATTGTTTTGTCGACATATAAAGTGTAAGATAAGAAA
DNA 2: TTTCTTATCTTACACTTTATATGTCGACAAAACAATTTGCACAAAA
B4: z1A O2-like box (dsDNA)
DNA 1: ATCAAGTTTGTCTTGCTTACGTATAAATTATAACCCAACA
DNA 2: TGTTGGGTTATAATTTATACGTAAGCAAGACAAACTTGAT
B5: z1C O2-box (dsDNA)
DNA 1: GAGATCTTGCATGTCATTCCACGTAGATAAAAAGAATGCATATATA
DNA 2: TATATATGCATTCTTTTTATCTACGTGGAATGACATGCAAGATCTC
B6: z1B-P2 (dsDNA)
DNA 1: CAAAGCCAACTAGATACCACATCATCTCTAGCTTATCTTA
DNA 2: TAAGATAAGCTAGAGATGATGTGGTATCTAGTTGGCTTTG
B7: z1B-P3 (dsDNA)
DNA 1: AACTCAATCTACATAAGCACAAGGTCTAACATGTGTATAA
DNA 2: TTATACACATGTTAGACCTTGTGCTTATGTAGATTGAGTT

Target: T1, PBF (prolamin-box binding factor) (Zea mays, UniProt O24463 1-328)
T1 sequence: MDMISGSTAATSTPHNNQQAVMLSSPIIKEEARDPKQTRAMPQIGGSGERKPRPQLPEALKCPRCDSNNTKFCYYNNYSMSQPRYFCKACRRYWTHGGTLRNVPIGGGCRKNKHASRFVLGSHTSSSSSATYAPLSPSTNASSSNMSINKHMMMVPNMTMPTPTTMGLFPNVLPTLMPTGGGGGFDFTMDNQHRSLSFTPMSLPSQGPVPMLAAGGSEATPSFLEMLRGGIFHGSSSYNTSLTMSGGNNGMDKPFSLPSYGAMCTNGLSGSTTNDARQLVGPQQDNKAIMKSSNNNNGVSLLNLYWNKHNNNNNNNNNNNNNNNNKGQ
Assay: EMSA

Binding result, binds:
B1, B2

Target: OHP1 (Zea mays, UniProt Q03462 1-405)
Assay: EMSA

Binding result, binds:
B3, B4, B5, B6, B7
